Test results as given in US20120165265A1, “Calcium Signaling Modulators Involving STIM and ORAI Proteins” (priority 2009, published 2012).

Assays:
endogenous CRAC channels = experiment: NFAT-luciferase assay in HEK 293T (NFAT-Luc) cells; format: cell-based; settings: following treatment with TG+PMA
Description: NFAT-luciferase Assays. HEK 293T cells were co-transfected with the indicated constructs and an NFAT reporter gene (firefly luciferase gene C-terminal to 4×-NFAT site from the IL-2 gene). Cotransfection with the Renilla luciferase (pRLTK) gene driven by the TK promoter was used to control for cell number and transfection efficiency. After 12-18 h, cells were treated with a control DMSO solution (mock), PMA (1 μM), or PMA plus TG (1 μM) for 8 h. Assays were performed using the Dual Luciferase Reporter assay system (Promega). For each condition, luciferase activity was measured with 4 samples taken from duplicate wells using a 96-well automated luminometer (Turner Biosystems). Results are represented as the ratio of firefly to Renilla luciferase activity.
Identifying a Minimal Cytosolic Region of STIM1 that Opens the CRAC Channel. To identify the CRAC-activating domain of STIM1, we first tested a series of soluble cytosolic STIM1 fragments for their ability to activate an NFAT-dependent luciferase reporter gene (NFAT-luc). A series of constructs were generated by progressive truncation of the full-length cytosolic region of STIM1 (FIG. 2A; STIM1234-685; CT-STIM1) and were transiently expressed in a HEK 293T cell line containing NFAT-luc. […]

Orai1 [1] = biological target: T1, Orai1 (Homo sapiens, UniProt Q96D31); experiment: Puncta formation of STIM1 variants by confocal microscopy in HEK 293 cells; format: cell-based; settings: coexpressed with eGFP-Orai1, TG
T1 construct: expressed in transfected cells; host or cells: HEK 293
T1 sequence (Q96D31 whole entry): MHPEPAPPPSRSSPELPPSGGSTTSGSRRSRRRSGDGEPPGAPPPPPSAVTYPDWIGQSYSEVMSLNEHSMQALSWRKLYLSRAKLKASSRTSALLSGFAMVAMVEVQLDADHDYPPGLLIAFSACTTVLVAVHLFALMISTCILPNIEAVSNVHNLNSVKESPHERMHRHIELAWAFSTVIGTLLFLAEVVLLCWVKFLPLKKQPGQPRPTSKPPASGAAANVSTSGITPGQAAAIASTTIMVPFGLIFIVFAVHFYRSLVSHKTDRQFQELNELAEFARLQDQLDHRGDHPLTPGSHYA
Description: Confocal Microscopy. 6 h after transfection, HEK 293 cells were plated onto sterilized coverslips coated with poly-D-lysine and maintained in complete DMEM for an additional 12-18 h before imaging in Ringer's solution containing (in mM): 155 NaCl, 4.5 KCl, 2 CaCl2, 1 MgCl2, 10 D-glucose, and 5 Na-Hepes, pH 7.4. To deplete stores, cells were treated with 1 μM TG in Ca2+-free Ringer's (prepared by substituting 2 mM MgCl2 and 1 mM EGTA for CaCl2) for 10 min. eGFP and mCherry were excited simultaneously at 488 and 594 nm, respectively, on a Leica SP2 AOBS inverted confocal microscope equipped with a PL APO 100×/NA 1.4 oil immersion objective. Fluorescence emissions were collected at 615-840 nm (mCherry) and 510-570 nm (eGFP). All experiments were performed at 22-25° C.
Quantitation of STIM1 and Orai1 Recruitment into Puncta. Colocalization of eGFP-Orai1 and mCh-STIM1 variants was analyzed from background-corrected confocal image pairs acquired before and after store depletion. Puncta have two defining characteristics: (1) because they are sites of accumulation, STIM1 and Orai1 fluorescence intensities in puncta are greater than the respective mean intensities measured across the entire cell, and (2) because STIM1 and Orai1 co-localize in puncta, their fluorescence covariance is high. […]

Orai1 [2] = biological target: T1, Orai1; experiment: Store-operated Ca2+ entry by STIM1 variants, single cell Ca2+ imaging; format: cell-based; settings: coexpressed with eGFP-Orai1, TG
Description: For FIG. 7, cells were loaded as above with 2 μM fura-2/AM for 25 min. Ratiometric Ca2+ imaging was performed with 350 and 380 nm excitation in 2 mM Ca2+ Ringer's solution on an Axiovert 35 inverted microscope using a VideoProbe imaging system as described (Bautista et al., 2002). mCherry-positive cells were identified using a 540±12 nm excitation and a 580LP emission filter (Chroma).
The Role of CAD in Orai1 Binding and Activation by STIM1. A key question is whether CAD is responsible for the clustering and activation of CRAC channels by full-length STIM1 following store depletion. To address this, we measured the ability of mCherry-tagged STIM1 variants containing CAD mutations to co-cluster with eGFP-Orai1 and activate Ca^2+ entry in response to TG (FIG. 7). STIM1-Orai1 colocalization was quantified as the fraction of total STIM1 and Orai1 fluorescence that was recruited to regions of high fluorescence covariance (FIG. 13), while Ca^2+ influx was measured with single cell Ca^2+ imaging. For each set of experiments we measured mCherry and GFP fluorescence to confirm that differences in the activity of the various STIM1 constructs were not due to differences in expression level (FIG. 14).

CAD = biological target: T2, CAD (Homo sapiens, UniProt Q13586); experiment: Co-immunoprecipitation of Orai1 fragments with CAD in HEK 293T cells; format: binding; settings: YFP-tagged Orai1 fragment with Flag-myc-CAD in HEK 293T cells
T2 construct: For STIM1 342-448 (CAD); expressed in transfected cells; host or cells: HEK 293T
T2 sequence (Q13586 342-448): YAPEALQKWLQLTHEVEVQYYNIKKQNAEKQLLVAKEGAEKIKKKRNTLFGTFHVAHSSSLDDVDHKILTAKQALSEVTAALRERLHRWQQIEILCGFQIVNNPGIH
Description: Immunoprecipitation and Immunoblot Analysis. Transfected HEK 293T cells (12-24 h) were washed with PBS and lysed in 50 mM Tris-HCl pH 7.5, 150 mM NaCl, 1% Triton X-100, and protease inhibitors. Lysates were spun at 12,000 rpm for 10 min, and the supernatant was incubated with anti-Flag M2 agarose beads (Sigma), or anti-myc or -HA antibody followed by IgG agarose beads (Pierce). Lysates and immunoprecipitates were subjected to SDS-PAGE, probed with HRP-conjugated secondary antibody and detected by enhanced chemiluminescence (Pierce).
STIM1-CAD BINDS TO THE N- AND C-TERMINI OF ORAI1. To identify regions of Orai1 important for activation by CAD, we characterized the binding of CAD to Orai1 using two approaches. First we expressed fusions of NubG with the N-terminus, the II-III cytoplasmic loop and the C-terminus of Orai1 in yeast together with different CAD-Cub-LV constructs. […] Based on the level of b-gal activity, CAD appears to interact with the Orai1 C-terminus with a higher affinity than with the N-terminus. We next expressed fusions of YFP with the N-terminus, the II-III loop and the C-terminus of Orai1 in HEK 293T cells together with Flag-myc-CAD. […]

puncta formation with Orai1 after store depletion (Orai1 [1])	co-immunoprecipitation with CAD (CAD)	Molecule	NFAT activation by endogenous channels (endogenous CRAC channels)	Ca2+ entry (SOCE) after store depletion (Orai1 [2])
failed to form puncta		STIM1-DCAD: WT-STIM1 with the CAD deleted (protein, left off: large carriers, WT-STIM1 with the CAD deleted) LSHSHSEKATGTSSGANSEESTAAEFCRIDKPLCHSEDEKLSFEAVRNIHKLMDDDANGDVDVEESDEFLREDLNYHDPTVKHSTFHGEDKLISVEDLWKAWKSSEVYNWTVDEVVQWLITYVELPQYEETFRKLQLSGHAMPRLAVTNTTMTGTVLKMTDRSHRQKLQLKALDTVLFGPPLLTRHNHLKDFMLVVSIVIGVGGCWFAYIQNRYSKEHMKKMMKDLEGLHRAEQSLHDLQERLHKAQEEHRTVEVEKVHLEKKLRDEINLAKQEAQRLKELREGTENERSRQKYAEEELEQVREALRKAEKELESHSSWSLVAALNIDPSWMGSTRPNPAHFIMTDDVDDMDEEIVSPLSMQSPSLQSSVRQRLTEPQHGLGSQRDLTHSDSESSLHMSDRQRVAPKPPQMSRAADEALNAMTSNGSHRLIEGVHPGSLVEKLPDSPALAKKALLALNHGLDKAHSLMELSPSAPPGGSPHLDSSRSHSPSSPDPDTPSPVGDSRALQASRNTRIPHLAGKKAVAEEDNGSIGEETDSSPGRKKFPLKIFKKPLKK	inhibited NFAT activation	failed to form puncta, cluster Orai1 or activate Ca^2+ entry
	not	Orai11-70: Orai1 fragment aa 1-70 (protein, left off: small tags and cut ends) MHPEPAPPPSRSSPELPPSGGSTTSGSRRSRRRSGDGEPPGAPPPPPSAVTYPDWIGQSYSEVMSLNEHS		
